Experimental data published in publication PMC10682464, “The structural basis for light acclimation in phycobilisome light harvesting systems systems in Porphyridium purpureum” (Communications Biology, 2023).

Legend:
[1] = target: T1, phycoerythrin (PE) β subunit of the Porphyridium purpureum phycobilisome (Porphyridium purpureum (endogenous in …, UniProt P11393 1-177, covalently attached open tetrapyrrole chromophores (sites not given))); assay: cryo-EM structure; intact ML-PBS isolated from P. purpureum on a sucrose gradient; 1.5 mg/mL, diluted on the grid with 50 mM Tris pH 8.0, 16 °C; overall resolution 3.04 Å, C2 symmetry; conditions: both partners purified
T1 construct: phycoerythrin beta subunit, Porphyridium purpureum (UTEX 2757); chain of the ML-PBS model PDB 7EZX, which was built from LL-PBS PDB 6KGX; also called β^PE; PE subunit

[2] = target: the molecule itself; assay: as above

binding result [1]	Binder	stoichiometry N [2]
binds	phycoerythrin (PE) α subunit of the Porphyridium purpureum phycobilisome (natural protein, UniProt P11392 1-164, looked up, covalently attached open tetrapyrrole chromophores (sites not given), phycoerythrin alpha subunit, Porphyridium purpureum (UTEX 2757); chain of the ML-PBS model PDB 7EZX, which was built from LL-PBS PDB 6KGX; also called α^PE; PE subunit) MKSVITTVVSAADAAGRFPSNSDLESIQGNIQRSAARLEAAEKLAGNHEAVVKEAGDACFAKYAYLKNPGEAGENQEKINKCYRDVDHYMRLVNYDLVVGGTGPLDEWGIAGAREVYRTLNLPTSAYVASIAYTRDRLCVPRDMSAQAGVEFSAYLDYLINALS	–
–	αβ^PE monomer (phycoerythrin α and β subunits) of the Porphyridium purpureum phycobilisome (complex, covalently attached open tetrapyrrole chromophores (sites not given) | covalently attached open tetrapyrrole chromophores (sites not given), phycoerythrin alpha subunit, Porphyridium purpureum; as the chain of m1; phycoerythrin beta subunit, Porphyridium purpureum; as the chain of m2; The introduction says that (αβ) monomers assemble into trimers and hexamers; also called (αβ) monomer) chain 1: MKSVITTVVSAADAAGRFPSNSDLESIQGNIQRSAARLEAAEKLAGNHEAVVKEAGDACFAKYAYLKNPGEAGENQEKINKCYRDVDHYMRLVNYDLVVGGTGPLDEWGIAGAREVYRTLNLPTSAYVASIAYTRDRLCVPRDMSAQAGVEFSAYLDYLINALS chain 2: MLDAFSRVVVNSDAKAAYVGGSDLQALKSFIADGNKRLDAVNSIVSNASCMVSDAVSGMICENPGLISPGGNCYTNRRMAACLRDGEIILRYVSYALLAGDASVLEDRCLNGLKETYIALGVPTNSSIRAVSIMKAQAVAFITNTATERKMSFAAGDCTSLASEVASYFDRVGAAIS	6
